The values that follow come from publication PMC3597676.

Series [1] concerns the target T1, Hfq (UniProt P0A6X3 1-102). As to the kind of experiment: EMSA. A general note: Mobility shift assays separate free from complexed probe on a gel.
The target of series [2] is T1, Hfq. As to the kind of experiment: EMSA. This is another data set of the same source.

A word on the Kd: it is the constant that tells how readily two partners part at equilibrium. Read a low Kd as higher affinity.

T1 sequence (P0A6X3 whole entry): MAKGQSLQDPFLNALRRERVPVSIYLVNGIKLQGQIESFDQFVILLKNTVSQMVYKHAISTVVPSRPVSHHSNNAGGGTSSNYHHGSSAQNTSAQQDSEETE

B1: MicAstab (structured_RNA)
RNA: GAAAGACGCGCAUUUGUUAUCAUCAUCCCUGGGAAAGCGACCGUUUCCCUGGCCACUCACGAGUGGCCUUUUAAAA
In the series with Hfq [1], B1 showed a Kd of 1.5 nM.

B2: MicAstab + ompA leader (structured_RNA)
RNA 1: B1 RNA
RNA 2: GGGCCAGGGGUGCUCGGCAUAAGCCGAAGAUAUCGGUAGAGUUAAUAUUGAGCAGAUCCCCCGGUGAAGGAUUUAACCGUGUUAUCUCGUUGGAGAUAUUCAUGGCGUAUUUUGGAUGAUAACGAGGCGCAAAAAAUGAAAAAGACAGCUAUCGCGAUUGCAGUGGCA
B2: the binding result with Hfq [2] is recorded as “binds”.
